Key:
Assay in all cases: Kinase Profiling Assay
Assay type in all cases: biochemical
Conditions in all cases: 100 μM
[1] = target: Met(M1268T) (h) (Homo sapiens, UniProt P08581, M1250T)
In short: (§1)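 Radiometric filter-binding format: cationic substrate takes up labeled phosphate from ATP unless the inhibitor peptide blocks the kinase. Substrate bound to an anionic filter, scintillation-counted, normalized to 100% activity control. Duplicates; part of a 266-kinase selectivity panel for MK2 peptides.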

[2] = target: T1, MSK1 (h) (Homo sapiens, UniProt O75582)
T1 construct: purchased Millipore
In short: as §1

[3] = target: T2, MSSK1 (h) (Homo sapiens, UniProt Q9UPE1)
T2 construct: purchased Millipore
In short: as §1

[4] = target: T3, SAPK4 (h) (Homo sapiens, UniProt O15264)
T3 sequence (O15264 1-365): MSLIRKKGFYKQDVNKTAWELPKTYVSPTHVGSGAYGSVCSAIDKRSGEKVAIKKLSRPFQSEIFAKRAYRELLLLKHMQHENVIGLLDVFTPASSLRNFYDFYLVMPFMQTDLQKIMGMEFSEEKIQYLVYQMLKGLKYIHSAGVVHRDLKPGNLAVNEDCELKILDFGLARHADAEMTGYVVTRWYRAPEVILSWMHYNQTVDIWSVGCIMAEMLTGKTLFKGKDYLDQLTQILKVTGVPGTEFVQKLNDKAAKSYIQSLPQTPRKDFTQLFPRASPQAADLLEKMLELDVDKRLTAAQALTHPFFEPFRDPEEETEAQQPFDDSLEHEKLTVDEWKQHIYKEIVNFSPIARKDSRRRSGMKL
In short: as §1

[5] = target: T4, TBK1 (h) (Homo sapiens, UniProt Q9UHD2)
T4 sequence (Q9UHD2 1-729): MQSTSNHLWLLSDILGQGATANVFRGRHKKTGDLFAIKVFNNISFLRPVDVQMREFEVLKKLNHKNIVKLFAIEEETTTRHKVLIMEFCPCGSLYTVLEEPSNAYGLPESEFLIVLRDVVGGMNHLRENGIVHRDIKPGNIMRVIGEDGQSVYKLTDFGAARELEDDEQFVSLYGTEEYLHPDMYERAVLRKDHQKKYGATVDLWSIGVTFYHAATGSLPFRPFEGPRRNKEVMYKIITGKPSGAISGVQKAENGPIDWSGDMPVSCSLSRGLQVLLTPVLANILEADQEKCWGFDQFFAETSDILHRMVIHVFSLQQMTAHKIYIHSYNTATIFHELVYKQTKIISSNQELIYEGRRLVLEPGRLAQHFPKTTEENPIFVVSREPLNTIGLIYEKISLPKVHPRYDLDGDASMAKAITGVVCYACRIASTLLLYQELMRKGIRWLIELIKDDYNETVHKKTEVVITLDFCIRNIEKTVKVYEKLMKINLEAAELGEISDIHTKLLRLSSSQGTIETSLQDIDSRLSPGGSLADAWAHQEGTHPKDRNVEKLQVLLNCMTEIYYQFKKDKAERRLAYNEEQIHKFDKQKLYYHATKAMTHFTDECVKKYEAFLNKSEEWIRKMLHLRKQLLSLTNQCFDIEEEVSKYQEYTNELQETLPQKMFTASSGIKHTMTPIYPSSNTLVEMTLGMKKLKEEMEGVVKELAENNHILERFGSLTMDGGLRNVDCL
In short: as §1

[6] = target: Flt1 (h) (Homo sapiens, UniProt P17948)
In short: as §1

[7] = target: T5, TAO2 (h) (Homo sapiens, UniProt Q9UL54)
T5 sequence (Q9UL54 1-1235): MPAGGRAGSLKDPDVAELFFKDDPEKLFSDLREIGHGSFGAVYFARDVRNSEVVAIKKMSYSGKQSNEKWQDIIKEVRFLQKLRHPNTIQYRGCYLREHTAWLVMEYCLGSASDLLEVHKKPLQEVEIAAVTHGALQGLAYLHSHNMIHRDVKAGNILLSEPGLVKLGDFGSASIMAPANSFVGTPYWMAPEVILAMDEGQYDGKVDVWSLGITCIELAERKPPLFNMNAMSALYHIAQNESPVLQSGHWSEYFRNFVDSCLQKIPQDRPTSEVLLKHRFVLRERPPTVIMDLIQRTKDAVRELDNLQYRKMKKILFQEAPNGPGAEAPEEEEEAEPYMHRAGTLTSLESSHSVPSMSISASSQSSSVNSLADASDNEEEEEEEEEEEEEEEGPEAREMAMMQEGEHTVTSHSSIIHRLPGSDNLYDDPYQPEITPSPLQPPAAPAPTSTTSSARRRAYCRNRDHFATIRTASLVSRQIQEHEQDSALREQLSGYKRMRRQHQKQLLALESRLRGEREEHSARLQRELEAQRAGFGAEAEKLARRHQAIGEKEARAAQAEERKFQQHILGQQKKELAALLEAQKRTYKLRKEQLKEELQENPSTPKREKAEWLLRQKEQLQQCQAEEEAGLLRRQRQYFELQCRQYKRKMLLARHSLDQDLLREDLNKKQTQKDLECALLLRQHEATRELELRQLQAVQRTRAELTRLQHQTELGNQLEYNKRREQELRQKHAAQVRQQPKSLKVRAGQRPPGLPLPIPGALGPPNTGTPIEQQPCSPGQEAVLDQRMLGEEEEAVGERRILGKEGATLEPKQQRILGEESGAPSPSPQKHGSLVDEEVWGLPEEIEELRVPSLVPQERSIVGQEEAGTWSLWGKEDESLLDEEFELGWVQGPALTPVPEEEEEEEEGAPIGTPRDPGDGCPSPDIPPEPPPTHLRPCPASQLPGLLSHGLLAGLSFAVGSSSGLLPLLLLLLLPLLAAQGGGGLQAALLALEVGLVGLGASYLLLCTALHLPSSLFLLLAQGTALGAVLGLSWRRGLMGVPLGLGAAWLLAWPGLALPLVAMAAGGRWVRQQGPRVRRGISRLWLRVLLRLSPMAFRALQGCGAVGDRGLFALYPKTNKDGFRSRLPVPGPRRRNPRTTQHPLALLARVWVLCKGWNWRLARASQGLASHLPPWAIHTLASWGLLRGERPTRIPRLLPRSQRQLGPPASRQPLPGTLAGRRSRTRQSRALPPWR
In short: as §1

[8] = target: T6, CDK3/cyclinE (h) (Homo sapiens, UniProt Q00526)
T6 construct: purchased Millipore
In short: as §1

[9] = target: TLK2 (h) (Homo sapiens, UniProt Q86UE8)
In short: as §1

T2 sequence (Q9UPE1 whole entry): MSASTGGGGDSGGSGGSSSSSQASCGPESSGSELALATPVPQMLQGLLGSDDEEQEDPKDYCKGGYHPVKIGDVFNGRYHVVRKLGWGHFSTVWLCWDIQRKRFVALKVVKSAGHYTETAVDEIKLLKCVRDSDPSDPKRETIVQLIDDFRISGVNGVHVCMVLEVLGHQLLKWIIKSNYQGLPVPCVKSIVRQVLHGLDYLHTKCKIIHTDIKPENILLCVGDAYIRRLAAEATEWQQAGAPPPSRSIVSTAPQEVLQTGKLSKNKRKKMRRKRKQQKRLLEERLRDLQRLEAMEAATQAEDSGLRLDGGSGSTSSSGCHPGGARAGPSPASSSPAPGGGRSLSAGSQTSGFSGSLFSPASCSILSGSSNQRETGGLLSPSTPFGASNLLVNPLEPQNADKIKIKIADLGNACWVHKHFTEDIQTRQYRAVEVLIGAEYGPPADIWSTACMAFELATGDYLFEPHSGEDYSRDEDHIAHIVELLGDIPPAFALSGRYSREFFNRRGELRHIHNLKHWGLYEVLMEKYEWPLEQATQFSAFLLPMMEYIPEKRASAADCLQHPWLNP
Chain of Flt1 (h) (P17948 27-1338): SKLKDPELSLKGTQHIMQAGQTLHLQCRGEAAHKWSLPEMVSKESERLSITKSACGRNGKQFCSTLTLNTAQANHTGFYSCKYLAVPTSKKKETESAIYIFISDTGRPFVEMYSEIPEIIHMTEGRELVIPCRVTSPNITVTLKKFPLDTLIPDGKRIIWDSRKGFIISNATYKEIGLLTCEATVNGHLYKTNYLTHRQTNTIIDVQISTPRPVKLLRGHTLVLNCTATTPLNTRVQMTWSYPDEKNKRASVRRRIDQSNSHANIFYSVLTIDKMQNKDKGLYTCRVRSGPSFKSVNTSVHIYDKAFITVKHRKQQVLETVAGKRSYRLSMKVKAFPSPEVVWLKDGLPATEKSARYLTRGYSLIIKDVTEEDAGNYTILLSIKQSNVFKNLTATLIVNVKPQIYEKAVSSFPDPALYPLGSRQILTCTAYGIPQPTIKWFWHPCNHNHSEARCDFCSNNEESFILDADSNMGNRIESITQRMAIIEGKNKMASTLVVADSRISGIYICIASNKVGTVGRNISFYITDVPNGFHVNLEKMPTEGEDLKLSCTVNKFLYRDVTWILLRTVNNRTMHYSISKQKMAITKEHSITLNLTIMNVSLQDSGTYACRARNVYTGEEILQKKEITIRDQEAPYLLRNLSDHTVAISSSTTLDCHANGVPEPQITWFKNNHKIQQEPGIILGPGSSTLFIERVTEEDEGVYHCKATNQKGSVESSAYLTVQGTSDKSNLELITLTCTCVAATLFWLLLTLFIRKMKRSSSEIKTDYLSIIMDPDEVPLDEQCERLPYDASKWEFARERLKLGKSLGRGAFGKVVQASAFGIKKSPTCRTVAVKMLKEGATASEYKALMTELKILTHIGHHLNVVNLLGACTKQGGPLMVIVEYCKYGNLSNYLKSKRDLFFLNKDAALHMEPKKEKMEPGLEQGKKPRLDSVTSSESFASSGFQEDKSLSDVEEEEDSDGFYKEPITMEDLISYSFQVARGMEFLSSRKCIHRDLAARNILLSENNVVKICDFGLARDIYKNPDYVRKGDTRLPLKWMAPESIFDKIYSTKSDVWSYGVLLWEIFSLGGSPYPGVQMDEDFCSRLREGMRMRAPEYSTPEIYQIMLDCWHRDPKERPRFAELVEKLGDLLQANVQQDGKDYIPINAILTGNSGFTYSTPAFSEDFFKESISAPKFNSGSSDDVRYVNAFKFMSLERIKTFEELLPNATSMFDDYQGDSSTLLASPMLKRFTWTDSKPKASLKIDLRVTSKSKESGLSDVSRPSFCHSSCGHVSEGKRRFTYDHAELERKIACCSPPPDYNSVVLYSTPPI
T1 sequence (O75582 whole entry): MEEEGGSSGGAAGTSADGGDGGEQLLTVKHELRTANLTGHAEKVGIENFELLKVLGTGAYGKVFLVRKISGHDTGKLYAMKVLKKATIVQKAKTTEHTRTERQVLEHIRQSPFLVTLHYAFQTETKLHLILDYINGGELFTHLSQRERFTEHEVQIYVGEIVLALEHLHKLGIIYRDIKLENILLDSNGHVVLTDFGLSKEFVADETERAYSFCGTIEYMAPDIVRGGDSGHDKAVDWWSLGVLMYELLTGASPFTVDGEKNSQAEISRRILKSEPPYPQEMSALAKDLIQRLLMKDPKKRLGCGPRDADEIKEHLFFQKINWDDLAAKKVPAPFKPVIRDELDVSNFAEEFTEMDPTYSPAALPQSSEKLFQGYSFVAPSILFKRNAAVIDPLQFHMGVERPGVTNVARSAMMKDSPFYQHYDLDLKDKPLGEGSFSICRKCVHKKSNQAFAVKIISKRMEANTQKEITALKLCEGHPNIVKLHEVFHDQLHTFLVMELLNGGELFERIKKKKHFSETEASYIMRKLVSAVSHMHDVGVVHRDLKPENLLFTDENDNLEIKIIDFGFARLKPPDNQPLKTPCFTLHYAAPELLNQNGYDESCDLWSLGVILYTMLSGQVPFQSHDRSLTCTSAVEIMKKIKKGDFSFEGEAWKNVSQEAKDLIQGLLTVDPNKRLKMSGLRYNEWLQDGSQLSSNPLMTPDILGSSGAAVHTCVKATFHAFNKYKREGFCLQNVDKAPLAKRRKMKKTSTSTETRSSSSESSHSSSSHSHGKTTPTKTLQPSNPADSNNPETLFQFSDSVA
Chain of TLK2 (h) (Q86UE8 whole entry): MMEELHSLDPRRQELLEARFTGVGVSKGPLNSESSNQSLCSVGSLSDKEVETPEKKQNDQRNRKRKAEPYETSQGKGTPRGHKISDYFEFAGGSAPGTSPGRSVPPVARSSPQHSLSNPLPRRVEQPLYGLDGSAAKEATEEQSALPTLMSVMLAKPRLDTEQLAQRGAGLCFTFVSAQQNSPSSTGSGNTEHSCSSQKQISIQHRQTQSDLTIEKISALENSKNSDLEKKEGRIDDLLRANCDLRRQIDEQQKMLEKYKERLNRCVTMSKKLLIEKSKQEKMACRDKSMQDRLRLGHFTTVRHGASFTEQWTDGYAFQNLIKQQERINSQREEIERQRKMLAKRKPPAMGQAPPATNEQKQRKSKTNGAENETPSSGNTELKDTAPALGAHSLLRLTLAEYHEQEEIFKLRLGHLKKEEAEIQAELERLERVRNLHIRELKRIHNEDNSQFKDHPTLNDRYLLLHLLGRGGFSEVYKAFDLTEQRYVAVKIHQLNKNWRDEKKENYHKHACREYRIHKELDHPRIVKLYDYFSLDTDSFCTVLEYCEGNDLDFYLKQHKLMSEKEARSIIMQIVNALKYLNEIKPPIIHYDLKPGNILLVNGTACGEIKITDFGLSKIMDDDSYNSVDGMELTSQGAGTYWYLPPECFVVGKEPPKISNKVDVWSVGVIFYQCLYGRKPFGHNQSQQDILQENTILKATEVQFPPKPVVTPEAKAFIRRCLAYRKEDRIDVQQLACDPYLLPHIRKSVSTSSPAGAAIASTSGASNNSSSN
T6 sequence (Q00526 whole entry): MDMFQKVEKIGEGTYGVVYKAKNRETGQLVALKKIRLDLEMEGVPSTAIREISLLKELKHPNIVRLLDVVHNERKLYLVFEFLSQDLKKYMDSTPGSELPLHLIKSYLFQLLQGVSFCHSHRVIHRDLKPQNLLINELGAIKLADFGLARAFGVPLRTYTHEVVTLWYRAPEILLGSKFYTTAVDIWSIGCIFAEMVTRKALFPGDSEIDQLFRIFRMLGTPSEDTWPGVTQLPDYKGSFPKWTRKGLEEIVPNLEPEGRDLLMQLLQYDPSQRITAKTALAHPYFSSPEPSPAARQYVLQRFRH
T6 sequence (P24864 whole entry partner): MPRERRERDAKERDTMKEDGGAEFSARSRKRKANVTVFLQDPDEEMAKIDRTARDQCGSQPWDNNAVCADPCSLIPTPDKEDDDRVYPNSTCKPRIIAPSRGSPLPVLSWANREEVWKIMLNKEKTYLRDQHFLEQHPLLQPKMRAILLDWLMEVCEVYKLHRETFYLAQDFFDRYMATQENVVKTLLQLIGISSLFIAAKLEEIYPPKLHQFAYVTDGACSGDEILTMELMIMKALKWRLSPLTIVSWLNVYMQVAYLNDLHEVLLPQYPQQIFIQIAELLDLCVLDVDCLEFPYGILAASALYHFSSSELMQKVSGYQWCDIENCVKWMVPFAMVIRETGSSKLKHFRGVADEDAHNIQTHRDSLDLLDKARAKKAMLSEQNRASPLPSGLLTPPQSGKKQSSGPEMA

| Sequence | % activity [1] | % activity [2] | % activity [3] | % activity [4] | % activity [5] | % activity [6] | % activity [7] | % activity [8] | % activity [9] |
| --- | --- | --- | --- | --- | --- | --- | --- | --- | --- |
| FAKLAARLYRKALARQLGVAA [MMI-0300] | 255% | 32% | 77% | 96% | 37% | 69% | 70% | 94% |  |
| HRRIKAWLKKIKALARQLGVAA (Mammalian) [MMI-0500] | 239% | 8% | 22% | 48% | 16% | 27% | 15% | 8% | 133% |
| KAFAKLAARLYRKALARQLGVAA [MMI-0400] | 265% | 28% | 75% | 91% | 39% | 48% | 74% | 92% | 151% |
| YARAAARQARAKALNRQLGVA (Mammalian) [MMI-0200] | 143% | 50% | 100% |  | 98% | 96% | 93% |  | 129% |

— patent publication US10500249B2, “Compositions and methods for preventing or treating diseases, conditions, or processes characterized by aberrant fibroblast proliferation and extracellular matrix deposition” (MOERAE MATRIX, INC., priority 2014, dated 2019)
